This data set can be described thus: yeast display, Sf9 membrane polyspecificity reagent, FACS + sequencing; frameworks hold sequencing errors. Summed up:
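Using colony PCR, genes from sorted yeast display clones were amplified, then sequenced on MiSeq at 2 × 250 and filtered by CDR length. The clones had been stained with 10% biotinylated, detergent-solubilized Sf9 membrane reagent for 1 hour at 4 °C and sorted by FACS into low and high (top ~1%) gates on anti-HA and streptavidin fluorescence. Polyreactivity labels come from the gate of origin.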
Regarding “QVQLVESGGGLVQAGGSLRLSCAASGRIFRNTMGWYIQAPGKERELVAAITDTTDSTYYADSVKGRFTISRDNAKNTVYLQMYSLKPEDTAVYYCAARYGGYVNRPYYYWGQGTQVTVSS”, the “polyreactivity (PSR sort gate)” value is listed as “low polyreactivity”.
Consider “QVQLVESGGGLVQAGGGLRLSCAASGITFVDYDMGWYRQAPGKERELDAAITTGSSTYYADSVKGRFTISRDNAKNTVYLQMNSLKPEDTAVYYCARDFEYDYYQQWSYGYWGQGTQVTVSS”, for which the “polyreactivity (PSR sort gate)” value is given as “low polyreactivity”.
As to “QVQLVESGGGLVQAGGSLRLSCAASGRIFWPYARGWYRPAPGKERELVAAITSGGSTYYADSVKGRFTISRDNAKNTVYLQMNSLKQEDTAVYYCAKLSSGVSVPVAYGGIKRYNSWGQGTQVTVSS”, the “polyreactivity (PSR sort gate)” value was “low polyreactivity”.
The same measure for “QVQLVESGGGLVQAGGSLRLSCAASGRIFGHYAMGWYRQAPGKERELVAAITIGGSTYYADSVKGRFTISRDNAKNTVYLQMNSLKPEDTAVYYCAKVGSNYRGRLGYWGQGTQVNVSS”: “low polyreactivity”.
Then “QVQLVESGGGLVQAGGSLRLSCAASGFIFSFYVMGWYRQAPGKERELVAAISTSGASTYYADSVKGRFTISRDNAKNTVYLQMTSLKPEDTAVYYCNVVYRYGGYNYWGQGTQVTVSS”, with “high polyreactivity”.
Then “QVQLVESGGGLVQAGGSLRLSCAASGITFWYYAMGWYRQAPGKERELVARIRRSGGSTYYADSVKGRFTISRDNAKNTVYLQMNSLKPEDTAVYYCAAEPRWTAVYQGAERFYYWGQGTQVTVSS”, with “high polyreactivity”; and “QVQLVESGGGLVQAGVSLRLSCAASGSTFTSYAMGWYRQAPGKERELVAAINDSAGSTYYADSVKGRFTISRDNAKNTAYLQKNSLKPDDTAVYYCAADGYNRQYVTYYYWGQGTQVTVSS”, with “low polyreactivity”; and “HVQLVDSGAGLVQAGGSLRLSCAASGRTFAYYAMGWYREATRKERELVAAIDSSGGSTYYADSVKGRFTISRDNAKNTVYLQMNSLKPEDTAVYYCAASYPYDRYDQGGYGYWGQGTQVTVSS”, with “low polyreactivity”.
Consider “QVQLVESGGGLVQAGGSLRLSCAASGLTFVWYAMGWYRQAPGKERELVAAIRGGGSTYYADSVKGRFTISRDNAKNTVYLQMNSLKPEDTAVYYCNARYYGAHSPYRFDYWGQGTQVTVSS”, for which the “polyreactivity (PSR sort gate)” value is “high polyreactivity”.
Then “QVQLVESGGGLVQAGGSLRLSCAASGSIFSYYARGWYRHAPGKERELVADITWDGGSTYYADSVKGRFTISRDNAKNTVYLQMNSLKPEDTAVYYCAAGRIVWSDYYVYTLYDYWGQGTQVTVSS”, with “high polyreactivity”.
The same measure for “QVQLVESGGGLVQAGGILRLSCAASGSIFNYYAMGWYRQAPGKEREMVAAITTSGGRTYYADSVKGRFTISRDNAKNTVYLQMNSLKPEDTAVYYCAARGYGRRAYVYRYDYWGQGTQVTVSS”: “high polyreactivity”; for “QVQLVESGGGLVQAGGSLRLSCAASGFTFNNYAMGWYRQAPGKERELVAAISSVGRTYYADSVKGRFTISRDNAKNTVYLQLNSLKPEDTAVYYCAVVYPARGSGNDSWGQGTQVTLSS”: “high polyreactivity”.
The same measure for “QVQLVESGGGLVQAGGSLRLSCAASGFTFYHNTMGWYRQAPGKEREFVATINFIGGSTYYADSVKGRFTISRDNAKNTVYLQMNSLKPEDTAVYYCNARSRYLYFLRFDYWGQGTQVTVSS”: “high polyreactivity”; for “QVQLVESGGGLVQAGGSLRLSCAASGRTFYANAMGWYRQAPGKERELVAAISSRSGTTHYAHSVKGRFTISRDNAKNTVYLQMNSLKPEDTAVYYCAADSCDLYVWGYDHWGQGTQVTVSS”: “low polyreactivity”; for “QVQLVESGGGLVQAGGSLRLSCAASGFTFTYYAMGWYRQAPGKERELVAAITRRGGRTYYADSVKGRFTISRDNAKNTVYLQMNSLKPEDTAVYYCNADEYGGSTGRKGRYNYWGQGTQVTVSS”: “low polyreactivity”.
With “QVQLVESGGGLVQAGGSLRLSCAASGRIFYYYMAWYRHAPGKERELVAAITRGGGTYADSVKGRFTISRDNAKNTVYLQMNSLKPEDTAVYYCAAYPRGARRLDYWGQGTQVTVSS”, the “polyreactivity (PSR sort gate)” value is recorded as “high polyreactivity”.
Then “QVQLVESGGGLVQAGGSLRLSCAASGRIFGDYGMGWYRQAPGKERELVAAISSGGSTNYADSVKGRFTISRDNAKNTVYLQMNSLKPEDTAVYYCAKATYPHEYDYWGQGTQVTVSS”, with “low polyreactivity”; and “QVQLVESGGGLVQAGGSLRLSCAASGFIFDVNALGWSRQATGKERELVATISKRGGTTYYADSVKGRFTISRDNAKNTVYLQMYSLKPDDTAVYYCAARHQTLRSYRYDYWGQGTQVTVSS”, with “low polyreactivity”; and “QVQLVESGGGLVQAGGSLRLSCAASGITFYVNAMGWYRQAPGKERELVASISTGGSTNYADSVKGRFTISRDNAKNTVYLQMNSLKPEDTAVYYCAARVDYHPSLRDYWGQGTQVTVSS”, with “low polyreactivity”.
The same measure for “QVQLVESGGGLVQAGGSLRLSCAASGRIFYNNVMGCYRQAPGKERELVAAISGNGGSTYYADSVKGRFTISRDNAKNTVYLQMNSLKPEDTAVYYCAARSSFRTLIFYQKFDYWGQGSQVTVSS”: “low polyreactivity”.
Regarding “QVQLVESGGGLVQAGGSLRLSCAASGITLAIYAMGWYRQAPGKERELVAAISSSGASTYYADSVKGRFTISRDNAKNTVYILMNSLKPEDTAVYYCAAAYGGSSYEYNYWGQGTQVTVSS”, the “polyreactivity (PSR sort gate)” value is “low polyreactivity”.
For the sequence “QVQLVESGGGLVQAGGSLRLSCAASGSIFDKNAMGWYRQAPGKERELVAAITSSGGDTYYADSVKGRFTISRDNAKNTVYLQMYSLKPEDTAVYYCAALGGRYRASTYGYWGQGTQVTVSS”, the “polyreactivity (PSR sort gate)” value is “high polyreactivity”.
The same measure for “QVQLVESGGGLVQAGGSLRLSCAASGRTFSSNAMGWYRQAPGKERELVAVITRRGGSTYYADSVKGRFTISRDNAKNTVYLQMNSLKPEDTAVYYCATDAPPQRSGRRSAGQKYYYLGQGTQVTVSS”: “high polyreactivity”; for “QVQLVESGGGLVQAGGSLRLSCAASGRIFYGYTMGCYRQAPGKETELVASITIRGSRTYYADSVKGRFTISRDNAKNTVYVQMNSLKPEDTAVYYCAADFVPARTVHRYDYWGQGTQVTVSS”: “low polyreactivity”.
Then “QVQLVESGGGLVQAGGSLRLSCAASGIIFRYNALGWYRQAPGKERELVSPISVSGGSTYYADSVKGRFTISRDNAKNTVYLQMNSLQPEDTAVYYCAALLYRYGVHQAEHDYWGQGTQVTVSS”, with “high polyreactivity”; and “QVQLVESGGGLVQARGSLRLSCAPSGRTFQLNAMGWYRQAPGKERQLFAAITVSGGGKYYADSVKGRFTISRDYAKNTVYFQMNSLKPEDTAVYYCNAKYKTRGRKSLYDYWGQGTQVTVSS”, with “high polyreactivity”.
Then “QVQLVESGGGLVQAGGSLRLSCAASGSTLFYNDMGWYRQAPGKEREFVAAIRSNDGSTYYADSVKGRFTISRDNAKNTVYLQMKSLKPEDTAVYYCNKDVWDGYDWPEFDYWGQGTQVTVSS”, with “low polyreactivity”; and “QVQLVESGGGLVQAGGSLRLSCAASGSIFASYAMGWYRQAPGKESELVAAITYSGSRTYYADSVKGRFTISRYNAKNTVYLQMNSMKPEDTAVYYCNADYYWYPYEDDYWGQGSQVTVSS”, with “low polyreactivity”.
For the sequence “QVQLVESGGGLVQAGGSLRLSCAASGSILTINAMGWYRQAPGKERELVAAITGNGGSTDYADSVKGRFTISRDTAKNTVYLQMNSLKPVDTAVYYCAARLYYFGRSGVKYRDGYWGQGTQVTVSS”, the “polyreactivity (PSR sort gate)” value is on record as “high polyreactivity”.
Then “QVQLVESGGGLVQAGGSLRLSCAASGFTLRVNAMGWYRQAPGKERELVAAISDSGTNTYYADSVKGRFTISRDNAKNTVYLQMNSLKPEDTAVYYCATAVYLVIFEYDYWGQGTQVTVSS”, with “low polyreactivity”.
Then “QVQLEESGGGLVQAGGSLRLSCAASGSTFSYNTMGWYRQAPGKERELVASITWSGGSTNYADSVKGRFTISRDNAKNTVYLQMNSLKPEDTAVYYCAKDYISVWNVRASDYYWYDYWGQGTQVTVSS”, with “low polyreactivity”.
The same measure for “QVQLVESGGGLVQAGGSLRLSCAASGFIFAFYAMGRYRQAPGKERELVASISRRSGSTYYADSVKGRFTISRDNAKNTVYLQMNSLKPEDTALYYCAADRPPCETYGYDYWGQGTQVTVSS”: “low polyreactivity”; for “QVQLQESGGDLEQAGGSLRLSCTASGTISDVRVMGWYRQAPGKERELVATISYVTITYYADSVKGRFTISRDSEKHRVSADDEPESGRYRGVLLRYYWGLGTQVTVSS”: “low polyreactivity”; for “QVQLVESGGGLVQAGGSLRLSCAASGSIFSYYAMGWYRQAPGKERELVAAITWSGGTTYYADSVKGRFTISRDNAKNTVYLQMNSLKPEDTAVYYCAADTYDYWYGVWLEYDYWGQGTQVTVSS”: “high polyreactivity”.
On to “QVQLVESGGGLVQAGGSLRLSCAASGFTLLTYVMGWYIQAPGKERELVAAISKSGSRTYYADSVKGRFTISRDNAKNTVYLQMNSLKPEDTAVYYCAADTSAYRYDYWGQGTQVTVSS”, for which the “polyreactivity (PSR sort gate)” value was “high polyreactivity”.
The same measure for “QVQLVESRGGLVQAGGSLRLTCAASGFIFKGYAMGWYRQEPGTERELVAAISYSGGNTYYADSVKGRFTISRDNAKNTVYLQMNSLKPEDTAVYYCAVRKRKVLGMYYWGQGTQVTVSS”: “high polyreactivity”; for “QVQLVESGGGLVQAGGSLRLSCAASGIIFGWYAMGWYRPAPGKERELVAAISSGGRTNYADSVKGRFTISRDNAKNTVYLQMNSLKPEDTAVYYCAARLWENTGYYYWGQGTQVTVSS”: “high polyreactivity”.
The same measure for “QVQLVESGGGLVQAGGSLRLSCAASGSTFSDYAMGWYRQATGKERELVAAISKRGGSTYYADSVKGRFTISRDNAKNTVFLQMNSQKPEDTAVYYCNKESLYREFDYWGQGTQVTVSS”: “low polyreactivity”.
“QVQLVESGGGLVQAGGSLRLSCAASGRILGKNTMGWYRQAPGKEREFVAAISASGGRTYYADSVKGRFTISRDNAKNTVYLQMNSLKPEDTAVYYCAAARSRYSYATGFDYWGQGTQVTVSS”: the “polyreactivity (PSR sort gate)” value is listed as “high polyreactivity”.
The same measure for “QVQLVESGGGLVQAGGSLRLSCAASGRTFLSYAMGWYRQAPGKDRELVAAIRRGSSTYYADSVKGRFTISRDNAKNTVYLQMNSLKPEDTAVYYCAARGRYRIGPGRYGKRYDYWGQGTQVTVSS”: “high polyreactivity”.
